Laboratory results from paper PMC9104065.

Molecular target: Wisteria floribunda agglutinin (Wisteria floribunda)
Test: automated chemiluminescent enzyme immunoassay (CLEIA, HISCL); IgA1 standards captured on WFA-conjugated magnetic beads, detected with alkaline-phosphatase-labelled anti-IgA1 mAb; 42 °C

CLEIA count, fold over nIgA1 not treated with sialidase: 700 fold
Substance: polymeric IgA1 standard cross linked with glutaraldehyde, with sialidase digestion
